# Data reported in patent publication EP2138508A1.
# Target: Met receptor on MK keratinocytes (mouse) (UniProt P16056)
# Test: cell-based or functional assay
substance,measurement,value
InIB full length (from UniProt P0DQD2 31-630) (ligand),"stimulation of DNA synthesis in MK keratinocytes, lowest active concentration",100 pM
